Measured values from US20230399394A1 (SUNSHINE GUOJIAN PHARMACEUTICAL SHANGHAI, published 2023).
Blank lines part the entries; values can stand above or below the binder they belong to.

Columns and labels:
[1] = target: T1, Human IL-33-his (human, UniProt O95760 112-270, biotinylated with EZ-Link NHS-Biotin where used as IL-33-his-biotin); test: ELISA as Example 9, IL-33-his-biotin on streptavidin plate; run with HuG, Hu1, Hu2
T1 construct: Used plain (SPR, cell assays) and biotinylated (ELISA); also called IL-33-his-biotin
T1 sequence: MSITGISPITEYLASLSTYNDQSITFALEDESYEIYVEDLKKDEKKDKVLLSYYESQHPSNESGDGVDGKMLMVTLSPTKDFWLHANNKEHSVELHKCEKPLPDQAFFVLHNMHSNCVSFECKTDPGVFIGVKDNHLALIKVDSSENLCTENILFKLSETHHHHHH
Protocol: (§1) SA protein was diluted to 2 μg/mL to coat ELISA plate at 100 μL/well overnight at 4° C. The plate was washed with PBST (PBS containing 0.05% Tween20) for 3 times, and blocked with 2% BSA prepared in PBS at 200 μL/well, at room temperature for 2 h. After the plate was washed twice with PBST, IL-33-his-biotin protein was diluted to 1 μg/mL with 1% BSA prepared in PBST, and was added to ELISA plate at 100 μL/well. The plate was incubated at room temperature for 1 h, and each monoclonal antibody was diluted with 1% BSA prepared in PBST in a 3-fold gradient. The highest concentration of antibody was 10 μg/mL, and the antibody was diluted for 12 gradients. Each diluted monoclonal antibody was added to ELISA wells with 100 μL/well, and the plate was incubated at room temperature for 1 h. Each sample was added to duplicate wells in parallel. The plate was washed with PBST for 3 times, and HRP-anti human IgG Fc secondary antibody prepared with PBST was diluted at an appropriate ratio, and was added to ELISA wells at 100 μL/well. The plate was incubated at room temperature for 1 h. After washing with PBST for 3 times, TMB developing solution was added at 100 μL/well. […] Each reaction solution was shaken uniformly and OD450 nm was read on a microplate reader. The data was analyzed and EC₅₀ was calculated.

[2] = target: T1, Human IL-33-his; test: ELISA, IL-33-his-biotin on streptavidin plate, anti-human Fc detection
Protocol: SA protein was diluted to 2 μg/mL to coat ELISA plate at 100 μL/well overnight at 4° C. The plate was washed with PBST (PBS containing 0.05% Tween20) for 3 times, and blocked with 2% BSA prepared in PBS at 200 μL/well, at room temperature for 2 h. After the plate was washed twice with PBST, IL-33-his-biotin protein was diluted to 1 μg/mL with 1% BSA prepared in PBST, and was added to ELISA plate at 100 μL/well. The plate was incubated at room temperature for 1 h, and each monoclonal antibody was diluted with 1% BSA prepared in PBST in a 3-fold gradient. The highest concentration of antibody was 10 μg/mL, and the antibody was diluted for 12 gradients. Each diluted monoclonal antibody was added to ELISA wells with 100 μL/well, and the plate was incubated at room temperature for 1 h. Each sample was added to duplicate wells in parallel. The plate was washed with PBST for 3 times, and HRP-anti human IgG Fc secondary antibody prepared with PBST was diluted at an appropriate ratio, and was added to ELISA wells at 100 μL/well. The plate was incubated at room temperature for 1 h. After washing with PBST for 3 times, TMB developing solution was added at 100 μL/well. When the development met expectations, 2M H₂SO₄ was added to terminate the chromogenic reaction at 70 μL/well. Each reaction solution was shaken uniformly and OD450 nm was read on a microplate reader. The data was analyzed and EC₅₀ was calculated.

[3] = target: T1, Human IL-33-his; test: competition ELISA, antibody mixed with IL-33-his-biotin, ST2-Fc on plate; competitor ST2-Fc
Protocol: (§2) ST2-Fc protein was diluted to 1 μg/mL with ELISA coating solution to coat ELISA plate with 100 μL/well. The plate was placed in a wet box at 4° C. for 16 h for coating. The ELISA plate was washed 3 times with PBST, and then was blocked with 2% BSA prepared in PBS at 200 μL/well at room temperature for 2 h. The plate was washed once with PBST, and was patted dry to remove the excess blocking solution. Each monoclonal antibody was diluted with 1% BSA prepared in PBST in a 3-fold gradient. The highest concentration of antibody was 10 μg/mL, and the antibody was diluted for 11 gradients. The diluted antibody was mixed 1:1 with 10 ng/ml IL-33-his-biotin, and then the mixture was added into the ELISA well at 100 μL/well. The plate was incubated at room temperature for 1 h. Each concentration was added to duplicate wells in parallel (maximum final concentration of antibody was […], final concentration of IL-33-his-biotin was 5 ng/mL). Unbound or non-specifically bound primary antibodies were washed out. According to the instructions of the antibody, HRP labeled streptavidin secondary antibody was diluted to an appropriate concentration with antibody diluent solution, then it was added to ELISA plate with 100 μL/well, and was incubated at room temperature for 1 h. The ELISA plate was washed with PBST for 5 times, and was patted dry on absorbent paper to remove excess liquid. TMB developing solution was added with 100 μL/well for development to an appropriate degree. 2M H₂SO₄ was added with 70 μL/well to terminate development, and the absorbance was measured at 450 nm on a multifunctional microplate reader. The data were analyzed.

[4] = target: T1, Human IL-33-his; test: ELISA as Example 9, IL-33-his-biotin on streptavidin plate; run with Hu3, Hu4, Hu5
Protocol: as §1

[5] = target: T1, Human IL-33-his; test: competition ELISA as Example 10, ST2-Fc on plate; competitor ST2-Fc
Protocol: as §2
The blocking effect of the above humanized antibodies on the binding of IL-33 to its receptor ST2 was determined by the ELISA method, and the relevant experimental methods were referred to Example 10.

[6] = target: T1, Human IL-33-his; test: SPR Biacore 8K as Example 14, antibody captured, antigen as analyte; human IL-33 as the control in the cross-reactivity run of Table 3
Protocol: (§3) A chip with covalently coupled Protein A/G (purchased from GE Healthcare, catalog number BR-1005-30) was used to capture each antibody to be tested, and the relevant operating parameters were as follows: The antibody concentration was […], the contact time was 75 s, the flow rate was […], and the regeneration contact time was 30 s. The IL-33-his antigen was diluted with HBS-EP pH7.4 buffer solution (purchased from GE Healthcare, catalog number BR-1006-69). The maximum concentration was 50 nM, and diluted to 0.39 nM by two-fold dilution. Duplicate wells and 0 concentration point well were set, and 6M guanidine hydrochloride solution was used as the regeneration buffer. The sample was injected on Biacore 8K according to the following parameters, the binding time was 180 s, the dissociation time was 900 s, the flow rate was 30 μL/min, and the regeneration contact time was 30 s. After running, Biacore 8K Evaluation Software was used to analyze the data according to the “1:1 binding kinetics model”, and the binding kinetics parameters of each antibody to IL-33 were obtained.
The experimental methods were referred to Example 14, in which the antigens cynomolgus IL-33 protein (purchased from Sino catalog number 90912-CNAE) and mouse IL-33 protein (purchased from R&D, 3626-ML-010/CF) were used, and human IL-33 protein was used as the control. […]

[7] = target: T1, Human IL-33-his; test: SPR Biacore 8K, antibody captured on Protein A/G chip, IL-33-his as analyte, 1:1 model
Protocol: as §3

[8] = target: T1, Human IL-33-his; test: ELISA as Example 9, IL-33-his-biotin on streptavidin plate
[9] = target: T2, Cynomolgus IL-33-his (cynomolgus, UniProt A0A2K5W3I1 112-269, biotinylated in the ELISA of Example 6); test: SPR Biacore 8K as Example 14, antibody captured, antigen as analyte
T2 construct: Bought protein; also called cynomolgus IL-33 protein; Cynomolgus monkeys IL-33
T2 sequence: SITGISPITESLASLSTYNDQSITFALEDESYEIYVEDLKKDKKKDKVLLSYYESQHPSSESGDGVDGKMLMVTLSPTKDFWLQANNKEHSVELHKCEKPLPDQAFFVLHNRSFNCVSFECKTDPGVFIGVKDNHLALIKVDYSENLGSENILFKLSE
Protocol: as §3
(§4) The experimental methods were referred to Example 14, in which the antigens cynomolgus IL-33 protein (purchased from Sino catalog number 90912-CNAE) and mouse IL-33 protein (purchased from R&D, 3626-ML-010/CF) were used, and human IL-33 protein was used as the control. Both 864F3-Hu4 and 874F7-Hu1 cross-react with cynomolgus IL-33 protein, and are consistent with the characteristics of each antibody binding to human IL-33 protein.

[10] = target: T3, Mouse IL-33 protein (mouse, UniProt Q8BVZ5 109-266); test: as above
T3 construct: Bought protein
T3 sequence (looked up): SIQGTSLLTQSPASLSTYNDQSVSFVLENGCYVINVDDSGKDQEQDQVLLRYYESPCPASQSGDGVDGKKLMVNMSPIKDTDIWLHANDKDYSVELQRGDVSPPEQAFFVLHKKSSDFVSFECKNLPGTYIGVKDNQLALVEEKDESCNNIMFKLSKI
Protocol: as §3, §4

[11] = target: T1, Human IL-33-his; test: as above
Protocol: as §3, §4

[12] = target: T1, Human IL-33-his; test: cell-based or functional assay

EC50 [1]: 0.169 nM | EC50 [2]: 0.173 nM | IC50 [3]: 0.58 nM | EC50 [4]: 0.124 nM
B1: 864F3-ch2 (antibody, human IgG4 S228P, kappa, V domains shown)
VH: QVHLKESGPGLVAPSQSLSITCNVSGFSLSKYGVHWIRQTPGRGLDWLGVLRAGGTISYNSALMSRLSISEDISKSQVFLKMNDLQTDDSAIYFCARDHYYYSSFGGFASWGQGTLVTVSA
VL: DIQMTQSPASQSASLGESVTITCLASQTIATWLAWYQQKPGKSPQLLIYAATRLADGVPSRFSGSGSGTEFSFKISSLQAEDFVIYYCQQLYNTPYTFGGGTKLEIKR
notes: Chimeric: human IgG4 (S228P) and human kappa constant regions; also called chimeric antibody 864F3-ch2

IC50 [5]: 0.512 nM | Kd [6]: 0.552 nM | Kd [7]: 1.38 nM | koff [7]: 0.000447 s⁻¹ | kon [7]: 323000 M⁻¹ s⁻¹ | EC50 [8]: 0.135 nM | Kd [9]: 0.637 nM | koff [9]: 0.000245 s⁻¹ | kon [9]: 385000 M⁻¹ s⁻¹ | Kd [10]: 190 nM | koff [10]: 0.0205 s⁻¹ | kon [10]: 108000 M⁻¹ s⁻¹ | koff [11]: 0.000149 s⁻¹ | kon [11]: 270000 M⁻¹ s⁻¹ | IC50 of inhibition of IFNγ secretion by NK cells induced by IL-33 [12]: 0.904 nM | IC50 of inhibition of IL-5 secretion of KU812 cells induced by IL-33 [12]: 27.6 nM | IC50 of inhibition of IL-13 secretion of KU812 cells induced by IL-33 [12]: 14.7 nM | IC50 of the inhibitory effect on IL-6 expression in HUVEC cells induced by IL-33 [12]: 0.073 nM | IC50 of the inhibitory effect on the IFN-γ secretion of PBMC induced by IL-33 [12]: 1.22 nM
B2: 864F3-Hu4 (antibody, human IgG4 S228P, kappa, V domains shown)
VH: QVQLQESGPGLVKPSETLSLTCTVSGFSLSKYGVHWIRQPPGKGLEWIGVLRAGGTISYNSALMSRVTISEDISKSQVSLKLSSVTAADTAVYYCARDHYYYSSFGGFASWGQGTLVTVSS
VL: DIQMTQSPSSLSASVGDRVTITCLASQTIATWLAWYQQKPGKSPKLLIYAATRLADGVPSRFSGSGSGTDFTLTISSLQPEDFATYYCQQLYNTPYTFGQGTKVEIKR
notes: Humanized; also called humanized antibody 864F3-Hu4
